From publication PMC5807052, “Robo1 Forms a Compact Dimer-of-Dimers Assembly” (Structure(London, England:1993), 2018)
Several values for one entry are separate records, joined by “and”; a condition that tells them apart may be missing. Identical values can stand only once.

B1: Robo1 ECDa (human Robo1 ectodomain, residues 61-853) (domain or fragment, UniProt Q9Y6N7-1 61-853, looked up)
chain: LRQEDFPPRIVEHPSDLIVSKGEPATLNCKAEGRPTPTIEWYKGGERVETDKDDPRSHRMLLPSGSLFFLRIVHGRKSRPDEGVYVCVARNYLGEAVSHNASLEVAILRDDFRQNPSDVMVAVGEPAVMECQPPRGHPEPTISWKKDGSPLDDKDERITIRGGKLMITYTRKSDAGKYVCVGTNMVGERESEVAELTVLERPSFVKRPSNLAVTVDDSAEFKCEARGDPVPTVRWRKDDGELPKSRYEIRDDHTLKIRKVTAGDMGSYTCVAENMVGKAEASATLTVQEPPHFVVKPRDQVVALGRTVTFQCEATGNPQPAIFWRREGSQNLLFSYQPPQSSSRFSVSQTGDLTITNVQRSDVGYYICQTLNVAGSIITKAYLEVTDVIADRPPPVIRQGPVNQTVAVDGTFVLSCVATGSPVPTILWRKDGVLVSTQDSRIKQLENGVLQIRYAKLGDTGRYTCIASTPSGEATWSAYIEVQEFGVPVQPPRPTDPNLIPSAPSKPEVTDVSRNTVTLSWQPNLNSGATPTSYIIEAFSHASGSSWQTVAENVKTETSAIKGLKPNAIYLFLVRAANAYGISDPSQISDPVKTQDVLPTSQGVDHKQVQRELGNAVLHLHNPTVLSSSSIEVHWTVDQQSQYIQGYKILYRPSGANHGESDWLVFEVRTPAKNSVVIPDLRKGVNYEIKARPFFNEFQGADSEIKFAKTLEEAPSAPPQGVTVSKNDGNGTAILVSWQPPPEDTQNGMVQEYKVWCLGNETRYHINKTVDGSTFSVVIPFLVPGIRYSVEVA
notes: Robo1, human, ectodomain construct ECDa, residues 61-853 of NP_002932; lacks the last beta-strand of Fn3; Cloned into a modified pTT3 vector that encodes a signal peptide and a C-terminal hexa-histidine tag; also called pTT3_Robo1_ECDa; source: HEK-293T, transient expression, secreted, purified (Ni-sepharose, SEC Superdex S200)
B2: Robo1 ECDb (human Robo1 whole ectodomain, residues 61-864) (domain or fragment, UniProt Q9Y6N7-1 61-864, looked up)
chain: LRQEDFPPRIVEHPSDLIVSKGEPATLNCKAEGRPTPTIEWYKGGERVETDKDDPRSHRMLLPSGSLFFLRIVHGRKSRPDEGVYVCVARNYLGEAVSHNASLEVAILRDDFRQNPSDVMVAVGEPAVMECQPPRGHPEPTISWKKDGSPLDDKDERITIRGGKLMITYTRKSDAGKYVCVGTNMVGERESEVAELTVLERPSFVKRPSNLAVTVDDSAEFKCEARGDPVPTVRWRKDDGELPKSRYEIRDDHTLKIRKVTAGDMGSYTCVAENMVGKAEASATLTVQEPPHFVVKPRDQVVALGRTVTFQCEATGNPQPAIFWRREGSQNLLFSYQPPQSSSRFSVSQTGDLTITNVQRSDVGYYICQTLNVAGSIITKAYLEVTDVIADRPPPVIRQGPVNQTVAVDGTFVLSCVATGSPVPTILWRKDGVLVSTQDSRIKQLENGVLQIRYAKLGDTGRYTCIASTPSGEATWSAYIEVQEFGVPVQPPRPTDPNLIPSAPSKPEVTDVSRNTVTLSWQPNLNSGATPTSYIIEAFSHASGSSWQTVAENVKTETSAIKGLKPNAIYLFLVRAANAYGISDPSQISDPVKTQDVLPTSQGVDHKQVQRELGNAVLHLHNPTVLSSSSIEVHWTVDQQSQYIQGYKILYRPSGANHGESDWLVFEVRTPAKNSVVIPDLRKGVNYEIKARPFFNEFQGADSEIKFAKTLEEAPSAPPQGVTVSKNDGNGTAILVSWQPPPEDTQNGMVQEYKVWCLGNETRYHINKTVDGSTFSVVIPFLVPGIRYSVEVAASTGAGSGVKS
notes: Robo1, human, whole ectodomain construct ECDb, residues 61-864 of NP_002932; Cloned into a modified pTT3 vector that encodes a signal peptide and a C-terminal hexa-histidine tag; also called pTT3_Robo1_ECDb; source: HEK-293T, transient expression, secreted, purified (Ni-sepharose, SEC Superdex S200)

Legend:
[1] = target: the molecule itself; assay: SEC-MALS; Superdex S200 HR 10/30, 200 mM NaCl, 20 mM Tris pH 7.5; 55 ul of Robo1 ECDa at 2.5 mg/ml from peak 1 of the SEC
[2] = target: the molecule itself; assay: SEC; Superdex S200, 200 mM NaCl, 20 mM Tris pH 7.5; self-association of Robo1 ECD
[3] = target: the molecule itself; assay: negative-stain EM reconstruction; GraFix-stabilised sample (fraction 12), ammonium molybdate stain, 100 kV; 3D map with D2 symmetry, 16 Å (FSC 0.143), filtered to 20 Å

| Protein | stoichiometry N [1] | stoichiometry N [2] | binding result [3] |
| --- | --- | --- | --- |
| B1 | 1 | 4 and 2 |  |
| B2 |  |  | binds |
